From the supplement of paper PMC10724198
± gives the standard deviation of the averaged measurements.

Legend:
Saccharomyces cerevisiae [1] = assay: protein stability index of tFT-peptide fusion (C-terminal peptide) (PSI (0-1 scale)); higher = more stable (slower turnover)
Protocol: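 MPS profiling in S. cerevisiae of the tFT-X12 degron library: putative degron peptides plus stable controls, 12 aa, fused to the C-terminus of a sfGFP-mCherry timer. Cells are FACS-sorted into 8 mCherry/sfGFP bins and deep-sequenced. PSI runs from 0 (unstable) to 1 (stable). Backgrounds are wild type, das1Δ and doa10Δ at 30 °C, and wild type, das1Δ, cdc34-1 and cdc53-1 at 37 °C; 2-3 technical replicates each.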

Saccharomyces cerevisiae [2] = assay: as above; conditions: genetic background: wild type; temperature: 30 C
[3] = genetic background: cdc34-1, temperature: 37 C
[4] = genetic background: cdc53-1, temperature: 37 C
[5] = genetic background: das1 deletion, temperature: 30 C
[6] = genetic background: das1 deletion, temperature: 37 C
[7] = genetic background: doa10 deletion, temperature: 30 C
[8] = genetic background: wild type, temperature: 30 C
[9] = genetic background: wild type, temperature: 37 C
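Also: PSI is a weighted mean of sequencing reads over stability bins, variants kept only with over 10 reads, mCherry proximal and sfGFP distal, peptide attached via GGGS linker.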

Row | Sequence | protein stability index (Saccharomyces cerevisiae [1]; [3]) | protein stability index (Saccharomyces cerevisiae [1]; [4]) | protein stability index (Saccharomyces cerevisiae [1]; [5]) | protein stability index (Saccharomyces cerevisiae [1]; [6]) | protein stability index (Saccharomyces cerevisiae [1]; [7]) | protein stability index (Saccharomyces cerevisiae [1]; [8]) | protein stability index (Saccharomyces cerevisiae [1]; [9]) | protein stability index (Saccharomyces cerevisiae [2])
1 | LVLFVCFSLFMR | 0.153 ± 0.0065 | 0.166 ± 0.037 | 0.189 ± 0.019 | 0.291 ± 0.012 | 0.219 ± 0.0087 | 0.168 ± 0.022 | 0.2732 ± 0.00043 | 0.309 ± 0.058
2 | LVLPAFLLLLYP | 0.2108 ± 0.0018 | 0.183 ± 0.022 | 0.307 ± 0.034 | 0.4212 ± 0.0012 | 0.509 ± 0.023 | 0.309 ± 0.028 | 0.367 ± 0.0037 | 0.4134 ± 0.0013
3 | LVLVLAVFGCHD | 0.397 ± 0.022 | 0.543 ± 0.079 | 0.305 ± 0.03 | 0.563 ± 0.02 | 0.284 ± 0.014 | 0.319 ± 0.036 | 0.477 ± 0.024 | 0.42 ± 0.061
4 | LVNSPSISSLWL | 0.695 ± 0.019 | 0.736 ± 0.034 | 0.688 ± 0.015 | 0.746 ± 0.0087 | 0.6786 ± 0.0038 | 0.691 ± 0.018 | 0.719 ± 0.008 | 0.586 ± 0.22
5 | LVSLLYFIVSLF | 0.516 ± 0.013 | 0.579 ± 0.033 | 0.473 ± 0.0089 | 0.566 ± 0.031 | 0.241 ± 0.018 | 0.254 ± 0.011 | 0.323 ± 0.014 | 0.311 ± 0.007
6 | LVTRVFVYFSIG | 0.498 ± 0.061 | 0.583 ± 0.035 | 0.403 ± 0.034 | 0.554 ± 0.036 | 0.323 ± 0.0055 | 0.35 ± 0.034 | 0.514 ± 0.0066 | 0.413 ± 0.012
7 | LVVEALFYVLVS | 0.036 ± 0.011 | 0.0563 ± 0.025 | 0.126 ± 0.025 | 0.181 ± 0.0096 | 0.0851 ± 0.0085 | 0.107 ± 0.021 | 0.124 ± 0.014 | 0.219 ± 0.054
8 | LVVFFPVLPIFG | 0.504 ± 0.02 | 0.554 ± 0.0072 | 0.394 ± 0.027 | 0.566 ± 0.016 | 0.383 ± 0.014 | 0.408 ± 0.0064 | 0.58 ± 0.077 | 0.4965 ± 0.0017
9 | LVVRLFVWDVVW | 0.34 ± 0.016 | 0.374 ± 0.028 | 0.269 ± 0.043 | 0.473 ± 0.0097 | 0.224 ± 0.006 | 0.266 ± 0.028 | 0.436 ± 0.0076 | 0.347 ± 0.045
10 | LWAVGWIIYFIV | 0.0967 ± 0.0059 | 0.245 ± 0.014 | 0.211 ± 0.028 | 0.362 ± 0.0042 | 0.106 ± 0.026 | 0.106 ± 0.011 | 0.0941 ± 0.006 | 0.172 ± 0.024
11 | LWLISTYQLIGI | 0.454 ± 0.021 | 0.583 ± 0.048 | 0.433 ± 0.011 | 0.5727 ± 0.0033 | 0.431 ± 0.022 | 0.451 ± 0.0091 | 0.536 ± 0.034 | 0.521 ± 0.032
12 | MALAVRVVWCGA | 0.179 ± 0.014 | 0.179 ± 0.024 | 0.204 ± 0.034 | 0.328 ± 0.0034 | 0.173 ± 0.0053 | 0.207 ± 0.025 | 0.295 ± 0.0084 | 0.269 ± 0.014
13 | MCFFVFVLFLFC | 0.307 ± 0.034 | 0.398 ± 0.12 | 0.281 ± 0.029 | 0.406 ± 0.013 | 0.2977 ± 0.0013 | 0.269 ± 0.033 | 0.377 ± 0.011 | 0.33 ± 0.015
14 | MLVWCLFWVACV | 0.203 ± 0.026 | 0.29 ± 0.0085 | 0.22 ± 0.028 | 0.355 ± 0.01 | 0.148 ± 0.011 | 0.168 ± 0.025 | 0.258 ± 0.0057 | 0.236 ± 0.0031
15 | MRMEGPLALSVR | 0.5519 ± 0.005 | 0.558 ± 0.016 | 0.395 ± 0.028 | 0.558 ± 0.0087 | 0.353 ± 0.019 | 0.403 ± 0.017 | 0.551 ± 0.006 | 0.48 ± 0.011
16 | MRVCLCLMLIVN | 0.179 ± 0.024 | 0.282 ± 0.031 | 0.214 ± 0.018 | 0.372 ± 0.0069 | 0.143 ± 0.022 | 0.148 ± 0.028 | 0.238 ± 0.0029 | 0.238 ± 0.033
17 | NARNPKKNRDQI | 0.697 ± 0.037 | 0.7226 ± 0.0072 | 0.627 ± 0.026 | 0.705 ± 0.032 | 0.633 ± 0.02 | 0.666 ± 0.058 | 0.70322 ± 0.00025 | 0.524 ± 0.093
18 | NFFYLFLSFGFG | 0.523 ± 0.076 | 0.565 ± 0.034 | 0.48 ± 0.025 | 0.588 ± 0.0086 | 0.46 ± 0.029 | 0.482 ± 0.03 | 0.552 ± 0.0068 | 0.436 ± 0.022
19 | NGSCRVVMYIKG | 0.667 ± 0.014 | 0.731 ± 0.022 | 0.592 ± 0.025 | 0.717 ± 0.014 | 0.588 ± 0.027 | 0.61 ± 0.0079 | 0.662 ± 0.017 | 0.552 ± 0.08
